Patent publication US20250154231A1 (RQBIO COVID, published 2025)

Target: SARS-CoV-1 S protein (SARS-CoV-1, UniProt P59594 14-1195)
Experiment: ELISA

Binder | binding result
Omi28 (antibody, V domains shown) VH: EVQLVESGGGLVQPGGSLRLSCAASGVIVSSNYMSWVRQAPGKGLQWVSVIYSGGSTFYADSVKGRFTISRDNSKNTLYLQMNSLRAEDTAVYYCARDLLEAGGTDYWGQGTLVTVSS VL: DVVMTQSPGTLSLSPGERATLSCRASQFIGSSYLAWYQQKPGQAPRLLIYGASNRATGVPDRFSGSGSGTDFTLTISRLEPEDFAVYYCQQYGSAPGTFGQGTKVEIK | no binding
Omi06 (antibody, V domains shown) VH: EVQLLESGPGLVKPSETLSLTCTVSGGSISRYSWSWIRQPAGRGLEWIGRMYSSGGTNYNPSLESRVTMSLDTSKKQFSLKLSSVTAADTAVYYCAAASIDQVWGTYRDAFDIWGQGTMVTVSS VL: AIRMTQSPSSLAASVGDRVTISCRAGQSISSFLHWYQQKVGKAPKLLIYDASSLQSGVPSRFSGSGSGTDFTLTISSLQPEDFAAYYCQQSYENPLTFGGGTKVDIK | no binding
Omi31 (antibody, V domains shown) VH: EVQLVQSGAEVKKPGSSVKVSCKASGGTFSSYGISWVRQAPGLGLEWMGGVIPILSAKHYAQRFQGRVTITADKSTGTAYMELSSLRSEDTAVYYCARDILHHDDLWGRFYYDGMDVWGQGTTVTVSS VL: not shown | no binding
Omi39 (antibody, V domains shown) VH: QVQLVESGGVVVQPGGSLRLSCAASGFSFDDYSMHWVRQAPGKGLEWVSVIYWDGVSKYYADSVKGRFTISRDNSKNSLYLQMNSLRTEDTAVYYCAKDSEDCSSTSCYMDVWGKGTTVTVSS VL: not shown | no binding
Omi35 (antibody, V domains shown) VH: QVQLVESGGGLVQPGRSLRLSCAASGFTFDDYAMHWVRQAPGKGLEWVSGSTWNSGTIDYADSVKGRFTISRDNAKNSLYLQMNSLRAEDTALYYCAKDRFRKGCSSTGCYKENYGMDVWGQGTTVTVSS VL: QSVVTQPPSVSVAPGQTARITCGGTNIGSKSVHWYQQKPGQAPVLVVYDDSDRPSGIPERFSGSNSGNTATLTITWVEAGDEADYYCQVWDSSSDNVLFGGGTKLTVL | no binding
Omi38 (antibody, V domains shown) VH: QVQLVESGAEVKKPGSSVKVSCKASGGNFNMYTISWVRQAPGRGLEWMGRFIPIANKANYAQNFPGRVTITADKSTSTVYMELRSLTSDDTAVYYCARSGSYDAFDVWGQGTMVTVSS VL: AIRMTQSPSTLSASVGDRVTITCRASQTINSWLAWYQQKPGKAPKLLIYDASNLESGVPSRFSGSGSGTEFTLTISSLQPDDFATYYCQQYESYSPITFGQGTRLEIK | no binding
Omi42 (antibody, V domains shown) VH: EVQLLETGGGLVQPGRSLRLSCAASGFPFDDYAIHWVRLAPGKGLEWVSSISWDSGSIGYADSVKGRFTISRDNAKNSLYLQMNSLRAEDTALYYCAKGAFPGYSSGWYYGLDVWGQGATVTVSS VL: QSVVTQPPSASGSLGQSVTISCTGTSSDVGGYNYVSWYQQHPGKAPKLMIFEVSKRPSGVPDRFSGSKSGNTASLTVSGLQAEDEADYYCSSYAGNKGVFGGGTKLTVL | no binding
Omi09 (antibody, V domains shown) VH: QVQLVESGGGVVQPGRSLRLSCAASGFTFRTYAVHWVRQAPGKGPEWVAVISYDGSNKYYADSVKGRFTLSRDTSKNTLYLQMNSLRAEDTAVYYCASRGDTVTTGDAFDIWGQGTMVTVSS VL: SYELTQPPSVSVSPGQTARITCSGDALPKQYTYWYQQKPGQPPVLVIYKDSERPSGIPERFSGSSSGTTVTLTISGVQAEDEADYYCQSTDSSATYPGNVVFGGGTKLTVL | no binding
Omi41 (antibody, V domains shown) VH: QVQLVQSGAEVKKPGASVKVSCKAAGYSFMNYGINWVRQAPGQGLEWMGWINTYNGNAKYAQKFQGRVTMTTDTSTSTAYMELRSLRSGDTAVYYCARDPFTGYDDVWGGDYWGQGTLVTVSS VL: not shown | no binding
Omi23 (antibody, V domains shown) VH: QVQLQESGPGLVKSSQTLSLTCTVSGDSISRGGYYWSWIRQHPGKGLEWIGSIYYSGSTYYNPSLKSRFTISVDTSKNQFSLKLSSVTAADTAVYHCAREIGFLDYWGQGTLVTVSS VL: AIQMTQSPSSLSASVGDRVTITCRASQAISNSLAWYQQKPGKAPKLLLYAASTLESGVPSRFSGSGSGTDFTLTISSLQPEDFATYFCQQYYSTPPRTFGQGTKVDIK | no binding
Omi02 (antibody, V domains shown) VH: EVQLVESGAEVKKPGSSVKVSCKASGGTFSSYAINWVRQAPGQGLEWMGGIIPIFRTPHYAQKFQGRVTITADESTGTAYMELSSLRSEDTAVYYCASPSCGGDCPQYLKSSKLDWYFDLWGRGTLVTVSS VL: VIWMTQSPGTLSLSPGERATLSCRASQSVSSTYLAWYQQKPGQAPRLLIYGASSRATGIPDRFSGSGSGTDFTLTISRLEPEDFAVYYCQHYGSSPLTFGQGTRLEIK | no binding
Omi26 (antibody, V domains shown) VH: QVQLVQSGTEVKKPGASVKVSCKASDYTFTRFGIIWVRQAPGQGLEWMGQINPYNGNTDYAQKFQGRVTLTTDTSTNTAYMELRSLRSDDTAVYYCARSAGSPTGLDYWGQGTLVTVSS VL: QSVVTQPPSVSEAPRQRVTISCSGSNSNIGNNAVNWYQQLPGKAPKLLVYYDDLLPSGVSDRFSGSKSGTSASLAISGLQSEDKADYYCAAWDDSLNALVFGGGTKLTVL | no binding
Omi12 (antibody, V domains shown) VH: EVQLVESGPEVKKPGTSVKVSCKASGFSFSMSAMQWVRRARGQRLEWIGWIVPGSGNANYAQKFQERVTITRDESTNTGYMELSSLRSEDTAVYYCAAPHCNKTNCYDAFDIWGQGTMVTVSS VL: AIRMTQSPGTLSLSPGERATLSCRASQSVRSSYLAWYQQKPGQAPRLLIYGASTRATGIPDRFSGSGSGTDFILTINRLEPEDLAVYYCQQFGSSPWTFGQGTKVDIK | no binding
Omi20 (antibody, V domains shown) VH: EVQLVESGGGLVQPGGSLRLSCEASEITVSSNYMNWVRQAPGKGLEWVSVLFAGGTTYYADSVKGRFTISRDNSKNTLYLQMNTLRIEDTAIYYCARDLVAYGVDVWGQGTTVTVSS VL: AIQMTQSPSFLSASVGDRVTITCRASQGISGDLAWYQQKPGKAPKLLIYAASTLQSGVPSRFSGSGSGTEFTLTISSLQPEDFATYYCQHLNSYPLTFGGGTKVEIK | no binding
Omi08 (antibody, V domains shown) VH: EVQLVESGAEVKRPGASVKVSCKASGYTFTNYFMHWVRQAPGQGLEWMGVINPSDGGASYPQKFQGRVTMTRDTSTSTVYMDLSSLRSEDTAVYSCARGAFDVSGSWYVPFDYWGQGTLVTVSS VL: QSVVTQPPSVSGAPGQRVTISCTGSSSNIGAGYDVHWYQQLPGAAPKLLIYGNTNRPSGVPDRFSGSKSGTSASLAITGLQAEDEADYYCQSYDITLSGSGYVFGTGTKVTVL | no binding
Omi25 (antibody, V domains shown) VH: QVQLVESGGGLVQPGRSLRLSCAASGFTFDDYAMHWVRQVPGKGLEWVSGISWNSGSIVYADFVKGRFTIARDNAKNSLFLQMNSLRAEDTALYYCAKSTALRHQYYYGMDVWGQGTTVTVSS VL: AIQMTQSPSSLSASVGDRVTITCRTSQTISSYLNWYQQKPGKAPKLLIYDASSLQSGVPSRFSGSGYGTDFTLTISSLQPEDFATYFCQQSYNTPYAFGQGTKVEIK | no binding
Omi30 (antibody, V domains shown) VH: EVQLVESGAEVKKPGSSVKVSCKASGGTFSRYAISWVRQAPGQGLEWMGGIIPIFDATNYAQKFHDRVTITADKSASTAYMELSSLRSDDTAVYYCARERTYCSGGTCYGGYFYYGMDVWGQGTTVTVSS VL: not shown | no binding
Omi36 (antibody, V domains shown) VH: EVQLVESGGGVVQPGGSLRLSCAASGIIVSANYMTWVRQAPGKGLEWVSVIYPGGSTFYADSVKGRFTISRDNSKNTLYLQMNSLRVEDSAVYYCARDLELAGFNDYWGQGTLVTVSS VL: DIVMTQSPGTLSLSPGERATLSCRTSQSVSSNYLAWYQQKPGQAPRLLIYGASSRATGIPDRFSGSGSGTDFTLTISRLEPEDFAVYYCQQFGSSPRYTFGQGTKVEIK | no binding
Omi32 (antibody, V domains shown) VH: EVQLVESGGGVVQPGRSLRLSCAASGFTFSNYGMHWVRQAPGKGLEWVAVYWYDGGNKFYADSVKGRFTISRDNSKNTLYLQMNSLRVEDTAVYYCARDTAPPDYWGQGTLVTVSS VL: AIRMTQSPGTLSLSPGERATLSCRASQSISSSFLAWYQQKPGQAPRLLIYGASSRATGIPDRFSGSGSGTDFTLTISRLEPEDFAVYYCQQYGTSPRLTFGGGTKVDIK | no binding
Omi24 (antibody, V domains shown) VH: QVQLVESGAEVKKPGSSVKVSCKASGGTFSSHGVIWVRQAPGQGLEWMGGIIPIFPTANYAQKFQGRVTITADKPSNTAYMELSSLRSEDTAVYYCARARGEHDSVWGSFHYYFDYWGQGTLVTVSS VL: not shown | no binding
Omi34 (antibody, V domains shown) VH: QVQLVQSGAEVKKPGSSVKVSCKASGGTFSSYGIRWVRQAPGQGLEWMGGIIPVFGATNYAQKFQDRVTITADKSTATAYMELSSLKSDDTAVYFCARDALSASGWTGPFDSWGQGTLVTVSS VL: QSVLTQPPSVSGAPGQRVTISCTGSSSNIGADYDVHWYQQLPGAAPKLLIYGNNNRPSGVPDRFSGSKSGTSASLAITGLQAEDEADYYCQSYDSSQNAFYVFGTGTKVTVL | no binding
Omi29 (antibody, V domains shown) VH: QVQLVESGGGLVQPGGSLRLSCAASGLIVSRNYMSWVRQAPGKGLEWVSLIYAGGSTFYSDSVKGRFTISRHSSENTLFLQMNSLRAEDTAVYYCARDLVHYGMDVWGQGTTVTVSS VL: NFMLTQPASVSGSPGQSITISCTGTSSDVGGYNYVSWYQQHPGKAPKLMIYDVSNRPSGVSNRFSGSNSGNTASLTISGLQAEDEADYYCSSYTSGSTWVFGGGTKLTVL | no binding
Omi27 (antibody, V domains shown) VH: EVQLLESGGGLVQPGGSLRLSCVASGLTVSSNYMSWVRQAPGKGLEWVSIIYPGGTTYYADSVKGRFTTSRDKSKNTLYLQMNSLRAEDTAVYYCARDLAVAGGMDVWGQGTTVTVSS VL: EIVMTQSPSSLSASVGDRVTITCRASQGIGNDLGWYQQKPGKAPKVLIYAASNLQSGVPSRFSGSGSGTDFTLTISSLQPEDFATYYCLQDSNYPYTFGQGTKVEIK | no binding
